Source: the nanobody polyreactivity screen of Harvey et al. (2022)

Test: yeast display, Sf9 membrane polyspecificity reagent, FACS + sequencing; frameworks hold sequencing errors
Method in brief: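 In a synthetic yeast display library (Saccharomyces cerevisiae BJ5465), nanobody expression was induced with galactose for 36–48 hours. FACS gates were set low and high (top ~1%) using anti-HA fluorescence for expression and streptavidin fluorescence for binding of the Sf9 membrane reagent. Each polyreactivity label is drawn from the gate of origin.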

Sequence	polyreactivity (PSR sort gate)
QVQLVESGGGLVQEGGSLRLICAASGGIFIYNAMGWYRQEPGKEREFVAAINISGGNTYYADSVKGRFTISRDNAKNTVYLQMNSLKPEDTAVYYCAARYASSWWIRYYYWGQGTQVSVSS	high polyreactivity
QVQLVESGGGLVQEGGSLRLICAASGLIFPRYSMGWYRQAPGKERELVAAITRGGSTYYADSVKGRFTISRDNAMNTVYLQMNSLKQEDTAVSYCNAELPVHWSWYVYWGQGTQVTVSS	low polyreactivity
QVQLVESGGGLVQEGGSLRLICAASGLTFFPYAMGWYRQAPGKDRELVAAITTSDGTTYYADSVKGRFTISRDNAKNTVYLQMNSLKPEDTAVYYCAAVYSPRSVWWYDYWGQGTQVTVSS	low polyreactivity
QVQLVESGGGLVQEGGSLRLICAASGRIFAGYAMGWYSQAPGKERELVAAISQDGGSTYYADSVKGRFTISRDNAKNTVYLQMNSLKPEDTAVYYCAAEDPDSWLPWDLFDYWGQGTQVTVSS	low polyreactivity
QVQLVESGGGLVQEGGSLRLICAASGSTFKAYAMGWYRQAPGKERELVAAITNSDGDTYYADSVKGRFTISRDNAKNTVYLQMNSLKPEDRAVYYCNADDALRQTPDYNYWGQGTQVTVSS	low polyreactivity
QVQLVESGGGLVQEGGSLRLSCAASGFIFGYYAMGWYRQAPGKERELVAAISFSDGITYYADSVKGRFTISRDNAKNTVYLQMNSLKPEDTAVYYCATEILDYYYGSEYDYWGQGTQVTVSS	high polyreactivity
QVQLVESGGGLVQEGGSLRLSCAASGFIFHVNAMGWYRQAPGKERELVARITTSGGNTFYADSVKGRFTISRDNAKNTVYLQMNSLKPEDTAVYYCAIRYRYSVGWPVKNSAFGYWGQGTQVTVSS	low polyreactivity
QVQLVESGGGLVQEGGSLRLSCAASGFIFSFYVMGWYRQAPGKERELVAAISTSGASTYYADSVKGRFTISRDNAKNTVYLQMNSLKQEDTAVYYCNVVYRYGGYIYWGQGTQVTVSS	high polyreactivity
QVQLVESGGGLVQEGGSLRLSCAASGFTFYWYAMGWYRQAPGKERELVAAITRSGSSTYYADSVKGRFTISRDNAKNTVYLQMNSLKPEDTEVYYCAALPYKPYYDAYDYWGQGTQVTVSS	high polyreactivity
QVQLVESGGGLVQEGGSLRLSCAASGIIFRVYAMGWYRQAPGKERELVATITYSGGITYYADSVKGRFTISRVNAKNTVYLQMNSLKQEDTAGYYPIGVGGDYDYWGQGTQVSVSS	low polyreactivity
QVQLVESGGGLVQEGGSLRLSCAASGITFPDYAMGWYRQAPGKERELVAAISRGVNTYYADSVKGRFTISRDNAKNTVYLQMNSLKPEDTAVYYCNRRGSSGYDYWGLGTQVTVSS	low polyreactivity
QVQLVESGGGLVQEGGSLRLSCAASGITFTSYTMGWYRQAPGKERELVAAISSGGSTYYADSVKGRFTISRDNAKNTVYLQMNSLKPEDTAVYYCAAISYVFRMYYWGQGTQVTVSS	high polyreactivity
QVQLVESGGGLVQEGGSLRLSCAASGLIFPSYARGWYRPAPGKERELVAGINTGGSTNYADSVKGRFTISRDNAKNTVSLQMNSQKPEDTAVYYCAKDNNYYWYVSPRDYWGLGTQVTVSS	low polyreactivity
QVQLVESGGGLVQEGGSLRLSCAASGLTFYYYAMGWYRPAPGKERELVAAISRSGGSTYYADSVKGRFTISRDNAKITVYLQMNSLIPEDTAVYYCASRDHAGYYKYDYWGQGTQVTVSS	high polyreactivity
QVQLVESGGGLVQEGGSLRLSCAASGNIFTTYAMGWYRQAPGKERELVAAISRSGGRTNYADSVKGRFTISRDNAKNTVYLQMNSLKPEDTAVYYCNRALKPVDSYAYGYWGQGTQVTVSS	high polyreactivity
QVQLVESGGGLVQEGGSLRLSCAASGNMLGTYAMGWYILAPGIEREFVAAISSSVGSTYYADSVKGRFTISRDNAKNSVYLQMNILKPEDTAVYYCAARKYQIYEKWGYLYDYWGQGTQVTVSS	low polyreactivity
QVQLVESGGGLVQEGGSLRLSCAASGRIFRVYTMGWYRQAPGKERELVASITGRGGSTYYADSVKGRFTISRDNAKNTVYLQMNSLKPEDTAVYYCAAQTFRGFSEFDYWGQGTQVTLSS	high polyreactivity
QVQLVESGGGLVQEGGSLRLSCAASGRIFYNYPMGWYRQAPGKEREFVAAISGSGGSTYYADSVKGRFTISRDIAKNTVYLQMKSLKPEDTAVYYCSTSGPQYYSRNFDYWGQGTQVTVSS	low polyreactivity
QVQLVESGGGLVQEGGSLRLSCAASGRIIPSYAMGWYRQAPGKERELVAAISYSGASTYYADSVKGRFTISRDNAKNTVYLLMNCLKPEDTAVYYCATDHDSVRVLVSSTSDYDYWGQGTQVTVSS	low polyreactivity
QVQLVESGGGLVQEGGSLRLSCAASGRISTYYTMGWYRQAPGKERELVAAISWSGTSTYYADSVKGRFTISRDNAKNTVYLQMNSLKPEDTAVYYCNARWRYPLDSVTDDYWGQGTQVTVSS	high polyreactivity
QVQLVESGGGLVQEGGSLRLSCAASGRPFYNAMGWYRPAPGKERELVAGIRWSGASTYYADSVKGRFTISRDNAKNTVYLQMNSLKPEDTAVYYCAARRHSTRLRLTSDYWGHGTQVTVSS	high polyreactivity
QVQLVESGGGLVQEGGSLRLSCAASGRTFGYYAMGWYRQAPGKERELVAAITRNGGRTYYADSVKGRFTISRDNAKNTVYLQMNSLKPEDTAVYYCAKDQYKPEAFYYWGQGTQVTVSS	high polyreactivity

Sequence	polyreactivity (PSR sort gate)
QVQLVESGGGLVQEGGSLRLSCAASGRTFPYTVMGWYRQAPGKERELVAGITGSGDSTFYADSVKGRFTISRDNAKNTVYIQMNSLKPEDTAVYYCAARYRTLNDGYIRIYWGQGTQVTVSS	low polyreactivity
QVQLVESGGGLVQEGGSLRLSCAASGRTFVSNAMGWYRQAPGKERELVAAIRYGGGRTYYADSVKGRFTISRDNAKNTVYLQMNSLKPEVTAVFYCAKRSVGGTGYYWGQGTQVTVSS	high polyreactivity
QVQLVESGGGLVQEGGSLRLSCAASGSIFPLYDMGWYRQAPGKERELVAGISSGGSTNYADSVKGRFTISRDNAKNTVYLQMTSLKPEDTAVYYCAATGSSRYGYWGQGTQVTVSS	low polyreactivity
QVQLVESGGGLVQEGGSLRLSCAASGSIFTLYFMGWYRQAPGKERELVAAITWSGGSTYYADSVKGRFTISRDNAKNTVYLQMNSLKTEVTAVYYCNADVRWDSQDYYYWGQGTQVTVSS	low polyreactivity
QVQLVESGGGLVQEGGSLRLSCAASGSTFFTYAMGWYRQAPGKERELVAAISSSGGSTYYADSVKGRFTISRDNAKNTVYLQMNSLIPEDTAVDYCNAKLYLPYDPTDEYDYWGQGTQVTVSS	low polyreactivity
QVQLVESGGGLVQEGGSLRLSCAASGSTFLTYAMGWYRQAPGKERELVAGITRSGASTYYADSVKGRFTISRDNAKNTVYLQMNSLKTEDTAVYYCAATYISHFHRYYYWGQGTQVTVSS	high polyreactivity
QVQLVESGGGLVQEGGSLRLSCAASGSTFRFYAMGWYRQAPGKERELVAVISFNDGSTYYADSVTGRFTISRDNAKNTVYLQMNSLKPEDSAVYSCATDELDSWWNEYEYWGQGTQVTVSS	low polyreactivity
QVQLVESGGGLVQEGGSLRLSCAASGSTFSRYAMGWYRQAPGKERELVAAISSRGGSTYYADSVKGRFTISRDNAKNNVYLQMNSLKPEDTAVYYCNALTSYQNHVYPYDYWGQGTQVTVSS	high polyreactivity
QVQLVESGGGLVQEGGSLRLSCAASGSTFWVYVMGWYRPAAGKERELVAGISSRGGNTYYADSVKGRFTISRDKAKNSVYLQMNSLKPEDTAVYYCNAPYGGDYESARDYWGQGTQVTVSS	low polyreactivity
QVQLVESGGGLVQEGGSLRLSCAASGSTFYPNAMGWYRQAPGKERELVAAISSSGGSTYYADSVKGRFTISRDNAKNTVYLQMNSLKPEDTAVYYCNKRWFRDYDYWGPGTQVTVSS	high polyreactivity
QVQLVESGGGLVQEGGSLRLSCAASGSTFYWYAMGWYRQAPGKERELVATISNTGRTYYADSVKGRFTISRDNAKNTVYLQMNSLKPEDTAVYDCAAKRSQRWRYDYWGQGTQVTVSS	high polyreactivity
QVQLVESGGGLVQEGGSLRLSCAASGSTSQYNDMGWYRQAPGKERELVAAITNCGSTNYADSVKGRFTISRDNAKNTVYLQMNSLKPEDTAVYSCNADYGQERPGYGYGYWGQGTQVTVSS	low polyreactivity
QVQLVESGGGLVQEGGSLRLSCASSGITFYSNAMGWYRQAPGKERELVATITRGGSTYYADSVKGRFTISRDNAKTTVYLHMNSLKPEDTAVYYCAADYSYRGREYGYWGQGTQVTVSS	low polyreactivity
QVQLVESGGGLVQGGGSLRLSCAASGIIFFNNVMGWYRLAPGKERELVAAITFSGSSTYYADSVKGRFTISRDNAKNTVYLQMNSLKTEDTAVYYCAAYRSGHGIIDYDSWGQGTQVTVSS	low polyreactivity
QVQLVESGGGLVQGGGSLRLSCAASGINFRSYAMGRYRQAPGKERALVAAISWSGGSTYYADSVKGRFTISRDNAKNTVYLQMNSLKPDDTAVYYCAAKVRFSYGRGYDYWGQGTQVTVSS	high polyreactivity
QVQLVESGGGLVQGGGSLRLSCAASGRIFLRNAMGSYRQAPGKERELVATITSRGCSTYYADSVKGRFTISRDNAKNTVYLQMNSLKPEDTAVYYCAAYPEYVSGAWYDYWGQGTQVNVSS	low polyreactivity
QVQLVESGGGLVQGGGSLRLSCAASGRILYSYAMGWYRQAPGKERELVAAISWRGGPTYYADSVKGRFTISRDNAKNTVYLQLNSLKPEDTAVSNCAPEFYDHPWMYDYWGQGTQVTVSS	low polyreactivity
QVQLVESGGGLVQGGGSLRLSCAASGSNLQINAMGWYRQAPGKERELVAANDWGGGDTYYADSVKGRFTISRDNAKNTVYVQMISLKPEDTAVYYCAAEGVTWYLWDFYDIYGYWGQGTQVNVSS	high polyreactivity
QVQLVESGGGLVQGGGSLRLSCADSGRTSDGYPMRWYRQATGKERELVAVITEGGGDTYYADSVKGRFTISRDHSKNTVYLKMNSLKPEDSAVYYCNAVEGSRLTYDYWGQGTQVTVSS	low polyreactivity
QVQLVESGGGLVQPGGSLRISCAASGSTFEYYAMGWYRQAPGKERELVAAITGSGGSTNYADSVKGRFTISRDNAKNTVYLQMNSLKPEDTAVYYCAADVYDAGVRYDYWGQGTQVTVSS	high polyreactivity
QVQLVESGGGLVQPGGSLRLSCAASGFTFYTYAMGWYRQAPGKERELVATISSGGRTNYADSVKGRFTISRDNAKNTVYLQKNSLKPEDTAVYYCNIRLRGGAVRFDSWGQGTQVTVSS	low polyreactivity
